Reference: the DeepSol protein solubility set

Assay: soluble on expression in E. coli; label from the status in PepcDB or PDB records

Sequence	soluble on expression in E. coli
MTTVQTSVYEPLTEPKAVSLAVRLGLFRDGAPLACREIGDGNLNLVFHIVDQETKQGVIIKQALPYAKVVGESWPLTLKRAVIESNALRTFASYVPQYVPKVYYSDESLAITVMEDLSRLQIARKGLIEGKTYPLLSQHIGEFVAKTAFYTSDFGMNQQEKKKLAQSFVNPELCKITEDLVFTDPFFDHETNNFEDELRPDVEALWRDDRLHLEAAKLKRKFLTEADVLLHGDLHTGSIFVSADETKVIDPEFAFYGPIGFDLGQFFANLLLNALSRSELERQPLFDHIDRTWDVFASVFSNLWCTESVETYAATPGLLEDVLRHAFIDAVGFAGCEVIRRTIGLAHVADLDGIEHKDERLVAKRHALRLGRRLIIERRVFTGTEDFRRLFAETEQ	not soluble
MTTVRQRIDTQHRDAIHDAQLNIYGSRLATCGSDRLVKIFEVRPNGQSYPMAELVGHSGPVWKVSWAHPKYGGLLASASYDKKVIIWNEQQGRWQKAYEWAAHEASTTCVAFAPHQYGLMLASASADGDIGILRYDNSSNEWISSKIQKCHEQGVNSVCWAPGSADPAAKKRLVSAGNDKNVKIWAFDDATNEWILEKTLAGHTDFVREAAWCPVTNNGQHTIVSCGMEGNLVLFRTSNIETEEWKAKLLETAPCALYHSSFSPCGSFLSVAGDDNVITIWRENLQGQWIKVPRDNKEREGMSQAVGAPGAQR	not soluble
MTTYTSIANVIKERRSVRTFTDKAVEKDLLIELLNDATWAPNHKHREPWNCKLYIGEGRKKLVDAVLNSFTEEERAKRGKILSDRFLSTPAQIVVYMNEDPRQIQRDEDYAATCAFMQNFQLLAWERGLGCVWKSGGLNYNPLFIEGIGLTRGQRIVGILHIGYFDKAPEGKARTPITEKMEIIEG	soluble
MTVAQLIDIDAKKTKTSNEVYQTSTMLALLDGIYDGVISFEDLKKHGDFGIGTFDQLDGEMIAFDNEFYHLRSDGSAEKVEPEETTPFATVTFFEKEMSYTVERPMNREEVEALLHELMPSKNLFYGIRMDGTFREVRTRTVPRQEKPYTPLVEVTKSQPIFSFENTEGTLAGFWTPDYAQGIGVAGFHLHYIDDERSGGGHVFDYVIENCTIQICQKAHMHLALPETADFMAAALSRENLEDNIATAEGAE	not soluble
MTVASTLGLNETQYATDDCLEEIINNTRAVRQDSEKTRFKLQINNFLAEVASGSLVINSDLIGSIEKRIADIDKLMSEQLSLIMHATEFQKIESAWTGLYKLVQASVTENVKYTVLHCTKKELLKDFKSASDFDQSVLFKNIYESEYGTFGGTPYSAFVGDFYFDNTPQDIDLLEHISHVAASAHAPFLSAIAPGMLSMSSFSELPYPRDLAKLFETTDYARWRSFRQTDDSRYVGLTLPQSLGRIPYGMKTIPAETFNFEEHISEDNSGKDYLWVNTAFELACRIVDAFEEYGWCAAIRGVEGGGLVKSLPAYNYVSHTGERLLQCPTEVAISDRREKELSDLGFIPLVYCKGTDFAAFFAVQSVNKARLYNTDQANANAKLSSQLQYILATSRFAHYLKVIVRDKVGSFMSRTECQTYLQNWIMQYVVASDNAGQETKARYPLREASVEVIEVPGSPGNYRAIAWIKPHFQLEGLSMSLRLVADLPSSVS	not soluble
MTVDSIPLNTGAQLPLFGLGTWQVKDEAELTVALRAALDAGYRLIDTAHLYQNEHIIGKVLHEYISSGKLKREDIFVTSKLPFTAHAPEDVPKCVESQLKALQLEYIDLYLIHCPFPFKHQEGSFAPLMENGELAVTEIAHIDTWRALEKLYKEGKLKALGVSNFSCNQLQALYDAAEVKPANQQVECHIYWPQQELRALCKKLGVTVTAYAPLGSPGRKAARPDGVWPEGDPLLEPIVKQLAAKYHKTAAQILIRHLTQHGISTIPKSVSPDRIVENISTFDFKLSDEDMHTLNSIETRTRLFIADFAVKHPFFPHDDIDTSKVPKVGIRLH	soluble
MTVESVNPETRAPAAPGAPELREPPVAGGGVPLLGHGWRLARDPLAFMSQLRDHGDVVRIKLGPKTVYAVTNPELTGALALNPDYHIAGPLWESLEGLLGKEGVATANGPLHRRQRRTIQPAFRLDAIPAYGPIMEEEAHALTERWQPGKTVDATSESFRVAVRVAARCLLRGQYMDERAERLCVALATVFRGMYRRMVVPLGPLYRLPLPANRRFNDALADLHLLVDEIIAERRASGQKPDDLLTALLEAKDDNGDPIGEQEIHDQVVAILTPGSETIASTIMWLLQALADHPEHADRIRDEVEAVTGGRPVAFEDVRKLRHTGNVIVEAMRLRPAVWVLTRRAVAESELGGYRIPAGADIIYSPYAIQRDPKSYDDNLEFDPDRWLPERAANVPKYAMKPFSAGKRKCPSDHFSMAQLTLITAALATKYRFEQVAGSNDAVRVGITLRPHDLLVRPVARHHHHHH	soluble
MTVEVDEYLNFCGTINEFISAHMLCLGMSVNNYEHRYIWDEILTSKSIKIRPFPFEKTARRSISGMIIKDDYETTLAYNSNMGEKRKNFTISHELIHAMYHLDSENKVFTDTKDTLSYSLADILPEFQANIGASSILLPEPVLINELKKGTPPYFISNRYGISEQAIFMRLLQQMQASFEASYVAAYDTANKIMNGNSKNLAIELGRNLERKILYSNPFYEAITL	not soluble
MTVFRQENVDDYYDTGEELGSGQFAVVKKCREKSTGLQYAAKFIKKRRTKSSRRGVSREDIEREVSILKEIQHPNVITLHEVYENKTDVILILELVAGGELFDFLAEKESLTEEEATEFLKQILNGVYYLHSLQIAHFDLKPENIMLLDRNVPKPRIKIIDFGLAHKIDFGNEFKNIFGTPEFVAPEIVNYEPLGLEADMWSIGVITYILLSGASPFLGDTKQETLANVSAVNYEFEDEYFSNTSALAKDFIRRLLVKDPKKRMTIQDSLQHPWIKPKDTQQALSRKASAVNMEKFKKFAARKKWKQSVRLISLCQRLSRSFLSRSNMSVARSD	soluble
MTVLSPSLPHAAGIDAALVENPWLGLRRSGRYFQNAETEALFARALGYARAGVCVHLAGPAGLGKTTLALRIAQALGRPVAFMTGNEWLGSRDFIGGEIGQTVTSVVDRYIQSVRRTEQSARIDWKESILGQAMRCGQTFIYDEFTRASPEANAALLSVLEEGVLVSTDGASRHQYIEAHPDFRVLLTSNPHEYQGVKAAPDALIDRMVTLRLEEPSAPTLAGIVALRSGLDPATARRIVDLILSVQRSGEMQAPPSMRTAILVARLAAPLRLAGRLSDAALAEIAADVLRGRGLEADAAAFEAKLAAPTPGETARLEHHHHHH	not soluble
MTVNKITYQNLQEEVYKLTLESGLNVYLIPKPSFKETVGVLTANFGSLHTKYTRNGCVEHYPAGIAHFLEHKLFELDKGQDAATQFTKYGAESNAFTTFDKTSFYFSTISHITNCLDILLDFVLTTNFTEESITKEKDIIKQEIEMYQDDPEYRLYQGVLSNLYPNSPLAFDIAGDYQSISQITLTDLQENHKDFYQLSNMNLVLVGQFSPQEIITYLQKNSHFTSYSQNIDRDSISLEPVIKNNSCHMTVTKPKLAIGYRKSNHMIHGSYLKEKIGLQLFFAMLLGWTSTINQDWYESGQIDDSFDIEIEVHPDFECVIISLDTTEPIAFSTQLRLLLKNALQSSDLTESHLKNVKRELYGDFLRSLDSIENLAMQFVTYLYDGKTMYLDLPSIVEELDLEDVITIGKDFLDNADTSDFVIFPKSS	not soluble
MTVPDAKRLKDLELENSRLKKLLAESLLDIGALKVVTRGKGEPGSGAGGQEMQAQTDISERRACQLFRLSRSVLCHQPRTSVQNTELQAQLVELARASALWLSPPAHSAAACWCADQLQADLPAILSRRLDGEAAEAPPQGRGGVRMPEPAERTELGLVDGFRLRRAQHWATDQMPDGGR	not soluble
MTVSPVPSPKGRVLIAGATGFIGQFVATASLDAHRPTYILARPGPRSPSKAKIFKALEDKGAIIVYGLINEQEAMEKILKEHEIDIVVSTVGGESILDQIALVKAMKAVGTIKRFLPSEFGHDVNRADPVEPGLNMYREKRRVRQLVEESGIPFTYICCNSIASWPYYNNIHPSEVLPPTDFFQIYGDGNVKAYFVAGTDIGKFTMKTVDDVRTLNKSVHFRPSCNCLNINELASVWEKKIGRTLPRVTVTEDDLLAAAGENIIPQSVVAAFTHDIFIKGCQVNFSIDGPEDVEVTTLYPEDSFRTVEECFGEYIVKMEEKQPTADSAIANTGPVVGMRQVTATCA	soluble
